Test results reported in patent US20240270825A1 (CENTIVAX, published 2024).
Where a chain is given by its changes, count along the chain named.

T1: MERS Receptor Binding Domain (RBD) protein (Middle East Respiratory Syndrome (MERS) …, UniProt K9N5Q8 367-606)
T1 construct: also called Middle East Respiratory Syndrome (MERS) virus
T1 sequence: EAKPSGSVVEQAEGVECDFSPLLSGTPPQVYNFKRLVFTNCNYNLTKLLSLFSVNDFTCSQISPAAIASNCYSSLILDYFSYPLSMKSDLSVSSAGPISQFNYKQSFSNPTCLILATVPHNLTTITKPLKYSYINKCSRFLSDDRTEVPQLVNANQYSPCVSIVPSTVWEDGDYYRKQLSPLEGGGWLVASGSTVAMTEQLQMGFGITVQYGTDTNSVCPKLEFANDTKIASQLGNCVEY

B1: COVID19_P09_G02 (scFv, V domains shown)
VH: QVQLVQSGAEVKKPGSSVKVSCKASGGTFSSYAISWVRQAPGQGLEWMGIIYPGDSTTNYSQKFQGRVTITADESTSTAYMELSSLRSEDTAVYYCAGHWGISTPMDVWGQGTLVTVSS
VL: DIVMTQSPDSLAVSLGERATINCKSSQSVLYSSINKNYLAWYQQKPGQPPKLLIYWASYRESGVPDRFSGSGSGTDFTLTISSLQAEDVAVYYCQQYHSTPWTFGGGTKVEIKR
B2: COVID19_P10_B06 (scFv, V domains shown)
VH: B1 VH with N59R, A97Y, G98S, H99G, W100S
VL: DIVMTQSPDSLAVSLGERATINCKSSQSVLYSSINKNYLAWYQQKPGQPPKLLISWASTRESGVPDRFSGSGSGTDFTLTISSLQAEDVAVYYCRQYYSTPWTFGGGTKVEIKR
B3: COVID19_P09_B07 (scFv, V domains shown)
VH: B1 VH with I50G, Y52I, G54T, D55L, S56G, T58A, S61A, H99S
VL: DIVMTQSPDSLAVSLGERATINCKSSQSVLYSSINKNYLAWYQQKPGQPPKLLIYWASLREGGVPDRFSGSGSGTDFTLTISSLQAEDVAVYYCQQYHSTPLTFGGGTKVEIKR
B4: COVID19_P09_A09 (scFv, V domains shown)
VH: B1 VH with N59R, A97Y, G98S, H99G, W100S
VL: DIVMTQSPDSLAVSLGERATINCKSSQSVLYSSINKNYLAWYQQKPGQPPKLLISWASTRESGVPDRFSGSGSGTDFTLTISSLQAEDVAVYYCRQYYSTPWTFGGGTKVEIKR
B5: COVID19_P09_H08 (scFv, V domains shown)
VH: B1 VH with I50G, Y52I, G54I, D55F, S56G, S61A, H99E
VL: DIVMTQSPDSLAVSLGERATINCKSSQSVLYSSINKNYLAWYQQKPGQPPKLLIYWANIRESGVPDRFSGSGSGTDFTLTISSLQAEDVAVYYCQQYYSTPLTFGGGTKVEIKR
B6: COVID19_P09_E05 (scFv, V domains shown)
VH: B1 VH with N59R, A97Y, G98S, H99G, W100S
VL: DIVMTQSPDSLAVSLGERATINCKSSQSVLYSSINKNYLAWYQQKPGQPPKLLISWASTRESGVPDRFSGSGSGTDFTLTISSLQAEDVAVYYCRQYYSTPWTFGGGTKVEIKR
B7: COVID19_P22_C09 (scFv, V domains shown)
VH: QVQLVQSGAEVKKPGSSVKVSCKASGYNFTDYHIQWVRQAPGQGLEWVGMIIPRHGGTAYAQRFQGRVTITADESTSTAYMELSSLRSEDTAVYYCAGGSGLTTPMDVWGQGTLVTVSS
VL: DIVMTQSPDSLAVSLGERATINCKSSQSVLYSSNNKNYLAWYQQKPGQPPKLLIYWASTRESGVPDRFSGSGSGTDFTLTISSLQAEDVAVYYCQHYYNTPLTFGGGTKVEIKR
B8: COVID19_P10_B10 (scFv, V domains shown)
VH: B7 VH with N28S, T30S, I34V, Q35H, R63K, L102I, T103S
VL: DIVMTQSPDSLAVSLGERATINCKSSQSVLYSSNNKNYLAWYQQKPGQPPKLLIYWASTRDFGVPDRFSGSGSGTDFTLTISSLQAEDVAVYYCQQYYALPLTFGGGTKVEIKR
B9: COVID19_P22_F04 (scFv, V domains shown)
VH: QVQLVQSGAEVKKPGSSVKVSCKASGGGFITYWIGWVRQAPGQGLEWMGIIYPGDGEARYSQKFQGRVTITADESTSTAYMELSSLRSEDTAVYYCAGGSGISTPMDVWGQGTLVTVSS
VL: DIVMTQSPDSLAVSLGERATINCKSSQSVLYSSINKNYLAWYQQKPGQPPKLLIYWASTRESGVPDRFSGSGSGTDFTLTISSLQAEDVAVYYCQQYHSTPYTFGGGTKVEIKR
B10: COVID19_P21_A08 (scFv, V domains shown)
VH: B9 VH with G28T, I50W, Y52N, G54N, D55S, E57G, A58T, R59N, S61A
VL: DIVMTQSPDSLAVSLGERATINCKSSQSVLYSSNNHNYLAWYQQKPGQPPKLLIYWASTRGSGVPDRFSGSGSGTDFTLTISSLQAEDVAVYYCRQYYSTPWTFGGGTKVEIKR
B11: COVID19_P09_C05 (scFv, V domains shown)
VH: QVQLVQSGAEVKKPGSSVKVSCKASGYSFSDYYIHWVRQAPGQGLEWMGWIDPNSGGTNYAQKFQGRVTITADESTSTAYMELSSLRSEDTAVYYCAGGSGISTPMDVWGQGTLVTVSS
VL: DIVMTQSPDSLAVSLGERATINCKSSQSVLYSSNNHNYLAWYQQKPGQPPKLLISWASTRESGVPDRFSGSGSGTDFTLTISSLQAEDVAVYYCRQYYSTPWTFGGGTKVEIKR
B12: COVID19_P10_C05 (scFv, V domains shown)
VH: B9 VH with G28T, G99S, S100G
VL: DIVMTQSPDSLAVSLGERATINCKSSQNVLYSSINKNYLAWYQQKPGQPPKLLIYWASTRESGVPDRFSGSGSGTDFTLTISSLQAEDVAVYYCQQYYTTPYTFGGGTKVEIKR
B13: COVID19_P10_D08 (scFv, V domains shown)
VH: QVQLVQSGAEVKKPGSSVKVSCKASGGTFNSHAISWVRQAPGQGLEWMGWINPNSGATNYAQKFQGRVTITADESTSTAYMELSSLRSEDTAVYYCAGGSGISTPVGVWGQGTLVTVSS
VL: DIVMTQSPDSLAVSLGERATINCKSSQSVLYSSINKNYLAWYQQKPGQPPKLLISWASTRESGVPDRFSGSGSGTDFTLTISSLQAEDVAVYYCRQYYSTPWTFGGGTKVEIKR
B14: COVID19_P21_B01 (scFv, V domains shown)
VH: B11 VH with S28T, D31T, Y33W, H35G
VL: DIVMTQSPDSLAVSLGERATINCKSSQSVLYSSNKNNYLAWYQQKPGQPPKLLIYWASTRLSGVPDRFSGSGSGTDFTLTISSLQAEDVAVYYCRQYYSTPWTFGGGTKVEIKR
B15: COVID19_P09_D06 (scFv, V domains shown)
VH: B9 VH with G27Y, G56S, A58T, S61A, S103Y, T104V
VL: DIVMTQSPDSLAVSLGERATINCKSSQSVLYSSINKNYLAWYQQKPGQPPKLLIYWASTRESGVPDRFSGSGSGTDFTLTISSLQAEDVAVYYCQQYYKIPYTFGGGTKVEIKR
B16: COVID19_P10_G03 (scFv, V domains shown)
VH: B11 VH with Y27G, S28T, D31N, Y32S, Y33S, H35N, W50R, D52N
VL: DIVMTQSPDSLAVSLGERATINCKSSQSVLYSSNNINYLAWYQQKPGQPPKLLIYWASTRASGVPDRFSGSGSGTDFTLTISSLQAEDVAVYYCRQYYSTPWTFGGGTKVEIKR
B17: COVID19_P22_H10 (scFv, V domains shown)
VH: B11 VH with Y27G, S28G, D31T, Y33W, H35G, M48V, D52N, G57A, N59K
VL: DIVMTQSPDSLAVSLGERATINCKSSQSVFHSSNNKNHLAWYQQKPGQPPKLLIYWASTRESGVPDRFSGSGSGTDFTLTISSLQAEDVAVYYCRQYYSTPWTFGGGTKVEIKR
B18: COVID19_P21_H01 (scFv, V domains shown)
VH: B11 VH with S28G, D31T, Y33W, H35G, D52N
VL: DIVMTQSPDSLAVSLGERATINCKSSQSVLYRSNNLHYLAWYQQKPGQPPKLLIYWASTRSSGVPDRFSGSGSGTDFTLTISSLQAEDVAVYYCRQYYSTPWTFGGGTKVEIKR
B19: COVID19_P09_H09 (scFv, V domains shown)
VH: B9 VH with G28T, G35Y, Q65Y, G99S, S100G
VL: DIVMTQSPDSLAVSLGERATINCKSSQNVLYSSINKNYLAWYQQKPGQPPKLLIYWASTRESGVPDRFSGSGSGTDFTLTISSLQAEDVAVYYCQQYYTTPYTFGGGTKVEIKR
B20: COVID19_P22_B04 (scFv, V domains shown)
VH: B9 VH with G27Y, G56S, A58T, S61A, S100E
VL: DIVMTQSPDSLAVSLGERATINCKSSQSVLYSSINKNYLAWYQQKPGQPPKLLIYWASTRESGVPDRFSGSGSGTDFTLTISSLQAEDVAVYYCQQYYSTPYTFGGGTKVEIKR
B21: COVID19_P21_B09 (scFv, V domains shown)
VH: B9 VH with G27Y, G28T, I30T, T31G, Y32H, W33Y, I34M, G35H, G56S
VL: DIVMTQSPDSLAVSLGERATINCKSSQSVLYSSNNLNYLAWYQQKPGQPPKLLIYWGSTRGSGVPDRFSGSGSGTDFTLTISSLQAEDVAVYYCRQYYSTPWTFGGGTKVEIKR
B22: COVID19_P22_E06 (scFv, V domains shown)
VH: B9 VH with G56S, A58T, T104S, P105D
VL: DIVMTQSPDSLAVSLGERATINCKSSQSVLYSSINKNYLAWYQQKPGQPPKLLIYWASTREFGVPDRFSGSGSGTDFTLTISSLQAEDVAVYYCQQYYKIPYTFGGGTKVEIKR
B23: COVID19_P22_G12 (scFv, V domains shown)
VH: B9 VH with G56S, A58T
VL: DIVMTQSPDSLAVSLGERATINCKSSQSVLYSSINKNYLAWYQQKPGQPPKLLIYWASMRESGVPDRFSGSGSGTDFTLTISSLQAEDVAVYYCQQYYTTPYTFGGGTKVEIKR
B24: COVID19_P22_F11 (scFv, V domains shown)
VH: B9 VH with G35S, S103I, T104Q
VL: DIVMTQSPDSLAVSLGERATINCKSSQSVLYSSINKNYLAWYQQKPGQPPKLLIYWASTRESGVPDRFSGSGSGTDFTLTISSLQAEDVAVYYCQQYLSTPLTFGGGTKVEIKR
B25: COVID19_P21_H03 (scFv, V domains shown)
VH: QVQLVQSGAEVKKPGSSVKVSCKASGYTFTNYGINWVRQAPGQGLEWMGWMNPYSGNTGYAQKFQGRVTITADESTSTAYMELSSLRSEDTAVYYCAVLSGISTPMDVWGQGTLVTVSS
VL: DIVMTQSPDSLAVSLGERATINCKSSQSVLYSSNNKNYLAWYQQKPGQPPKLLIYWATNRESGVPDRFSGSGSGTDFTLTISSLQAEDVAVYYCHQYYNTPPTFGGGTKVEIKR
B26: COVID19_P10_A09 (scFv, V domains shown)
VH: B11 VH with S28T, S30T, I51M, D52N, G57N, N59G, K63N, P105A, M106W
VL: DIVMTQSPDSLAVSLGERATIRCTSSLSLQDRSNNKNYLTWYQQKPGQPPKLLIYWASTRESGVPDRFSGSGSGTDFTLTISSLQAEDVAVYYCQQHYSAPLTFGGGTKVEIKR
B27: COVID19_P21_B02 (scFv, V domains shown)
VH: B25 VH with Y54N, V98A, L99V
VL: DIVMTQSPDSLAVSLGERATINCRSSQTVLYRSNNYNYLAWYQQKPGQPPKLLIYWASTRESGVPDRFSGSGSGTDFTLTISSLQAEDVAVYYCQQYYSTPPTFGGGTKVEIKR
B28: COVID19_P09_G12 (scFv, V domains shown)
VH: B25 VH with T28P, N35S, Y54N, V98T
VL: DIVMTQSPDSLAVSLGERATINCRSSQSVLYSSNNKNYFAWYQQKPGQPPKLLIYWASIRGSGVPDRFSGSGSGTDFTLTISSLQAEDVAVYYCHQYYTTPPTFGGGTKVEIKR
B29: COVID19_P21_E04 (scFv, V domains shown)
VH: B25 VH with V37M, Y54N, V98G, L99G
VL: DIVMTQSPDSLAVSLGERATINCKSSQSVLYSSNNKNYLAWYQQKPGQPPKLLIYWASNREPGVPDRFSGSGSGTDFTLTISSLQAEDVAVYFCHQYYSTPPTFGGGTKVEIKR
B30: COVID19_P09_B09 (scFv, V domains shown)
VH: QVQLVQSGAEVKKPGSSVKVSCKASGYRFTDYHLHWVRQAPGQGLEWMGGIVPFSGTTNFAQKFQGRVTITADESTSTAYMELSSLRSEDTAVYYCAGGSGETTPMDVWGQGTLVTVSS
VL: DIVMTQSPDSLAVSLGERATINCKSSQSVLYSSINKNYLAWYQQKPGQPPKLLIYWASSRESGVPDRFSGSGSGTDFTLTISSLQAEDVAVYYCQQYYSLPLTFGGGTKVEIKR
B31: COVID19_P09_B10 (scFv, V domains shown)
VH: B11 VH with S30T, Y33H, G49A, W50M, D52V, N54R, S55G, G57S, N59T
VL: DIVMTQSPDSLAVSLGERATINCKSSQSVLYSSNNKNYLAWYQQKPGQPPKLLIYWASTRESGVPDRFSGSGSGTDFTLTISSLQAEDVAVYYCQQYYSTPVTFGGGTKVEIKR

The binders below were run against T2, SARS-CoV-1 Receptor Binding Domain (RBD) protein (SARS-CoV-1, UniProt P59594 306-527) (assay: SPR Carterra LSA, scFv captured via anti-V5).
T2 construct: also called SARS1

Binder | binding result
B1 | no binding (tested: 300 nM)
B2 | no binding (tested: 300 nM)
B3 | no binding (tested: 300 nM)
B4 | no binding (tested: 300 nM)
B5 | no binding (tested: 300 nM)
B6 | no binding (tested: 300 nM)
B7 | no binding (tested: 300 nM)
B8 | no binding (tested: 300 nM)
B9 | no binding (tested: 300 nM)
B10 | no binding (tested: 300 nM)
B11 | no binding (tested: 300 nM)
B12 | no binding (tested: 300 nM)
B13 | no binding (tested: 300 nM)
B14 | no binding (tested: 300 nM)
B15 | no binding (tested: 300 nM)
B16 | no binding (tested: 300 nM)

Binder | binding result
B17 | no binding (tested: 300 nM)
B18 | no binding (tested: 300 nM)
B19 | no binding (tested: 300 nM)
B20 | no binding (tested: 300 nM)
B21 | no binding (tested: 300 nM)
B22 | no binding (tested: 300 nM)
B23 | no binding (tested: 300 nM)
B24 | no binding (tested: 300 nM)
B25 | no binding (tested: 300 nM)
B26 | no binding (tested: 300 nM)
B27 | no binding (tested: 300 nM)
B28 | no binding (tested: 300 nM)
B29 | no binding (tested: 300 nM)
B30 | no binding (tested: 300 nM)
B31 | no binding (tested: 300 nM)

Each binder was assayed against T1, MERS Receptor Binding Domain (RBD) … (assay: SPR Carterra LSA, scFv captured via anti-V5).

Binder | binding result
B1 | no binding (tested: 300 nM)
B2 | no binding (tested: 300 nM)
B3 | no binding (tested: 300 nM)
B4 | no binding (tested: 300 nM)
B5 | no binding (tested: 300 nM)
B6 | no binding (tested: 300 nM)
B7 | no binding (tested: 300 nM)
B8 | no binding (tested: 300 nM)
B9 | no binding (tested: 300 nM)
B10 | no binding (tested: 300 nM)
B11 | no binding (tested: 300 nM)
B12 | no binding (tested: 300 nM)
B13 | no binding (tested: 300 nM)
B14 | no binding (tested: 300 nM)
B15 | no binding (tested: 300 nM)
B16 | no binding (tested: 300 nM)

Binder | binding result
B17 | no binding (tested: 300 nM)
B18 | no binding (tested: 300 nM)
B19 | no binding (tested: 300 nM)
B20 | no binding (tested: 300 nM)
B21 | no binding (tested: 300 nM)
B22 | no binding (tested: 300 nM)
B23 | no binding (tested: 300 nM)
B24 | no binding (tested: 300 nM)
B25 | no binding (tested: 300 nM)
B26 | no binding (tested: 300 nM)
B27 | no binding (tested: 300 nM)
B28 | no binding (tested: 300 nM)
B29 | no binding (tested: 300 nM)
B30 | no binding (tested: 300 nM)
B31 | no binding (tested: 300 nM)
